Patent publication US20250333467A1 (TECTONIC OPERATING, published 2025)

T1: human RXFP1 (human, UniProt Q9HBX9 1-757)
T1 sequence (looked up): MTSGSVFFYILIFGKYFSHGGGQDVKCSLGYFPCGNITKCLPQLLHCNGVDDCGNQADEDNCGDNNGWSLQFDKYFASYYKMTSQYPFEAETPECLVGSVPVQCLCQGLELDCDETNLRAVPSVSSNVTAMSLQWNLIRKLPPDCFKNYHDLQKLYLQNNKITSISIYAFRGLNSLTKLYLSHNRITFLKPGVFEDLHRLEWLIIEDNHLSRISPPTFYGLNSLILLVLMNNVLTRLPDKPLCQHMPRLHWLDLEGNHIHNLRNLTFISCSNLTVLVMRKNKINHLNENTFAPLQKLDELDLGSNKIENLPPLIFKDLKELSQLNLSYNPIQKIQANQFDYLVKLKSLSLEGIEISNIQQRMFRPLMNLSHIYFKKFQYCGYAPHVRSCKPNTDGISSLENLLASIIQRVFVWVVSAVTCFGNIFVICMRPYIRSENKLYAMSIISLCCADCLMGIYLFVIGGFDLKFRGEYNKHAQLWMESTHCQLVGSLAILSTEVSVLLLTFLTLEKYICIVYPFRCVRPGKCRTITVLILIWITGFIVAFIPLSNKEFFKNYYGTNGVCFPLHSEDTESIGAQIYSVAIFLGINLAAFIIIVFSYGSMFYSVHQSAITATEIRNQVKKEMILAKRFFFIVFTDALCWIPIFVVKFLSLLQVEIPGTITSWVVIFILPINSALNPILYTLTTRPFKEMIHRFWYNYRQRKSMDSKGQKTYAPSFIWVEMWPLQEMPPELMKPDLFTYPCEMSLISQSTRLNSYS


Biological target: T1, human RXFP1
Assay: cell-based or functional assay

Potency (cAMP, transient hRXFP1 in HEK293)	Binder
18.9 nM	SEQ ID NO: 326 (Fc fusion) DKTHTCPPCPAPEAAGGPSVFLFPPKPKDTLMISRTPEVTCVVVDVSHEDPEVKFNWYVDGVEVHNAKTKPREEQYNSTYRVVSVLTVLHQDWLNGKEYKCKVSNKALAAPIEKTISKAKGQPREPQVYTLPPSRDELTKNQVSLTCLVKGFYPSDIAVEWESNGQPENNYKTTPPVLDSDGSFFLYSKLTVDKSRWQQGNVFSCSVLHEALHSHYTQKSLSLSPGKGGSDSWQEEVIKLCGRELVRAQIAICGKSTGGEGEGGEGEGGSRQLYSALANKCCHVGCTKRSLAQFC
10.2 nM	SEQ ID NO: 321 (Fc fusion) DKTHTCPPCPAPEAAGGPSVFLFPPKPKDTLMISRTPEVTCVVVDVSHEDPEVKFNWYVDGVEVHNAKTKPREEQYNSTYRVVSVLTVLHQDWLNGKEYKCKVSNKALAAPIEKTISKAKGQPREPQVYTLPPSRDELTKNQVSLTCLVKGFYPSDIAVEWESNGQPENNYKTTPPVLDSDGSFFLYSKLTVDKSRWQQGNVFSCSVLHEALHSHYTQKSLSLSPGKGGSDSWQEEVIKLCGRELVRAQIAICGKSTGGGEEGGGEEGGGRQLYSALANKCCHVGCTKRSLAQFC
23.4 nM	SEQ ID NO: 325 (Fc fusion) DKTHTCPPCPAPEAAGGPSVFLFPPKPKDTLMISRTPEVTCVVVDVSHEDPEVKFNWYVDGVEVHNAKTKPREEQYNSTYRVVSVLTVLHQDWLNGKEYKCKVSNKALAAPIEKTISKAKGQPREPQVYTLPPSRDELTKNQVSLTCLVKGFYPSDIAVEWESNGQPENNYKTTPPVLDSDGSFFLYSKLTVDKSRWQQGNVFSCSVLHEALHSHYTQKSLSLSPGGGSDSWQEEVIKLCGRELVRAQIAICGKSTGGGEEGGGEEGGGRQLYSALANKCCHVGCTKRSLAQFC
9.3 nM	SEQ ID NO: 327 (Fc fusion) DKTHTCPPCPAPEAAGGPSVFLFPPKPKDTLMISRTPEVTCVVVDVSHEDPEVKFNWYVDGVEVHNAKTKPREEQYNSTYRVVSVLTVLHQDWLNGKEYKCKVSNKALAAPIEKTISKAKGQPREPQVYTLPPSRDELTKNQVSLTCLVKGFYPSDIAVEWESNGQPENNYKTTPPVLDSDGSFFLYSKLTVDKSRWQQGNVFSCSVLHEALHSHYTQKSLSLSPGGGSDSWQEEVIKLCGRELVRAQIAICGKSTGGEGEGGEGEGGSRQLYSALANKCCHVGCTKRSLARFC
41.9 nM	SEQ ID NO: 328 (Fc fusion) DKTHTCPPCPAPEAAGGPSVFLFPPKPKDTLMISRTPEVTCVVVDVSHEDPEVKFNWYVDGVEVHNAKTKPREEQYNSTYRVVSVLTVLHQDWLNGKEYKCKVSNKALAAPIEKTISKAKGQPREPQVYTLPPSRDELTKNQVSLTCLVKGFYPSDIAVEWESNGQPENNYKTTPPVLDSDGSFFLYSKLTVDKSRWQQGNVFSCSVLHEALHSHYTQKSLSLSPGGGSDSWQEEVIKLCGRELVRAQIAICGKSTGGEGEGGEGEGGSRQLYSALANKCCHVGCTKRSLAQFC

The remaining lines, values behind:

Binder	Potency (cAMP, transient hRXFP1 in HEK293)
SEQ ID NO: 319 (Fc fusion) DKTHTCPPCPAPEAAGGPSVFLFPPKPKDTLMISRTPEVTCVVVDVSHEDPEVKFNWYVDGVEVHNAKTKPREEQYNSTYRVVSVLTVLHQDWLNGKEYKCKVSNKALAAPIEKTISKAKGQPREPQVYTLPPSRDELTKNQVSLTCLVKGFYPSDIAVEWESNGQPENNYKTTPPVLDSDGSFFLYSKLTVDKSRWQQGNVFSCSVLHEALHSHYTQKSLSLSPGKGGSDSWQEEVIKLCGRELVRAQIAICGKSTGGGEEGGGEEGGGRQLYSALANKCCHVGCTKRSLARFC	5.8 nM
SEQ ID NO: 84 (Fc fusion) DKTHTCPPCPAPEAAGGPSVFLFPPKPKDTLMISRTPEVTCVVVDVSHEDPEVKFNWYVDGVEVHNAKTKPREEQYNSTYRVVSVLTVLHQDWLNGKEYKCKVSNKALAAPIEKTISKAKGQPREPQVYTLPPSRDELTKNQVSLTCLVKGFYPSDIAVEWESNGQPENNYKTTPPVLDSDGSFFLYSKLTVDKSRWQQGNVFSCSVLHEALHSHYTQKSLSLSPGKGGSDSWQEEVIKLCGRELVRAQIAICGKSTASDAAGADANAGARQLYSALANKCCHVGCTKRSLAQFC	1.9 nM
SEQ ID NO: 94 (Fc fusion) DKTHTCPPCPAPEAAGGPSVFLFPPKPKDTLMISRTPEVTCVVVDVSHEDPEVKFNWYVDGVEVHNAKTKPREEQYNSTYRVVSVLTVLHQDWLNGKEYKCKVSNKALAAPIEKTISKAKGQPREPQVYTLPPSRDELTKNQVSLTCLVKGFYPSDIAVEWESNGQPENNYKTTPPVLDSDGSFFLYSKLTVDKSRWQQGNVFSCSVLHEALHSHYTQKSLSLSPGEGGSDSWQEEVIKLCGRELVRAQIAICGKSTASDAAGAEAEAGARQLYSALANKCCHVGCTKRSLAQFC	12.2 nM
SEQ ID NO: 99 (Fc fusion) DKTHTCPPCPAPEAAGGPSVFLFPPKPKDTLMISRTPEVTCVVVDVSHEDPEVKFNWYVDGVEVHNAKTKPREEQYNSTYRVVSVLTVLHQDWLNGKEYKCKVSNKALAAPIEKTISKAKGQPREPQVYTLPPSRDELTKNQVSLTCLVKGFYPSDIAVEWESNGQPENNYKTTPPVLDSDGSFFLYSKLTVDKSRWQQGNVFSCSVLHEALHSHYTQKSLSLSPGEGGSDSWQEEVIKLCGRELVRAQIAICGQSTASDAAGANADAGARQLYSALANKCCHVGCTKRSLAQFC	9.4 nM
SEQ ID NO: 88 (Fc fusion) DKTHTCPPCPAPEAAGGPSVFLFPPKPKDTLMISRTPEVTCVVVDVSHEDPEVKFNWYVDGVEVHNAKTKPREEQYNSTYRVVSVLTVLHQDWLNGKEYKCKVSNKALAAPIEKTISKAKGQPREPQVYTLPPSRDELTKNQVSLTCLVKGFYPSDIAVEWESNGQPENNYKTTPPVLDSDGSFFLYSKLTVDKSRWQQGNVFSCSVLHEALHSHYTQKSLSLSPGKGGSDSWQEEVIKLCGRELVRAQIAICGKSTASDAAGAQADAGARQLYSALANKCCHVGCTKRSLAQFC	1.4 nM
SEQ ID NO: 100 (Fc fusion) DKTHTCPPCPAPEAAGGPSVFLFPPKPKDTLMISRTPEVTCVVVDVSHEDPEVKFNWYVDGVEVHNAKTKPREEQYNSTYRVVSVLTVLHQDWLNGKEYKCKVSNKALAAPIEKTISKAKGQPREPQVYTLPPSRDELTKNQVSLTCLVKGFYPSDIAVEWESNGQPENNYKTTPPVLDSDGSFFLYSKLTVDKSRWQQGNVFSCSVLHEALHSHYTQKSLSLSPGEGGSDSWQEEVIKLCGRELVRAQIAICGQSTASDAAGADADAGARQLYSALANKCCHVGCTKRSLAQFC	28.7 nM
SEQ ID NO: 89 (Fc fusion) DKTHTCPPCPAPEAAGGPSVFLFPPKPKDTLMISRTPEVTCVVVDVSHEDPEVKFNWYVDGVEVHNAKTKPREEQYNSTYRVVSVLTVLHQDWLNGKEYKCKVSNKALAAPIEKTISKAKGQPREPQVYTLPPSRDELTKNQVSLTCLVKGFYPSDIAVEWESNGQPENNYKTTPPVLDSDGSFFLYSKLTVDKSRWQQGNVFSCSVLHEALHSHYTQKSLSLSPGKGGSDSWQEEVIKLCGRELVRAQIAICGKSTASDAAGADAQAGARQLYSALANKCCHVGCTKRSLAQFC	2.5 nM
SEQ ID NO: 97 (Fc fusion) DKTHTCPPCPAPEAAGGPSVFLFPPKPKDTLMISRTPEVTCVVVDVSHEDPEVKFNWYVDGVEVHNAKTKPREEQYNSTYRVVSVLTVLHQDWLNGKEYKCKVSNKALAAPIEKTISKAKGQPREPQVYTLPPSRDELTKNQVSLTCLVKGFYPSDIAVEWESNGQPENNYKTTPPVLDSDGSFFLYSKLTVDKSRWQQGNVFSCSVLHEALHSHYTQKSLSLSPGEGGSDSWQEEVIKLCGRELVRAQIAICGKSTASDAAGAQAQAGARQLYSALANKCCHVGCTKRSLAQFC	1.3 nM
SEQ ID NO: 85 (Fc fusion) DKTHTCPPCPAPEAAGGPSVFLFPPKPKDTLMISRTPEVTCVVVDVSHEDPEVKFNWYVDGVEVHNAKTKPREEQYNSTYRVVSVLTVLHQDWLNGKEYKCKVSNKALAAPIEKTISKAKGQPREPQVYTLPPSRDELTKNQVSLTCLVKGFYPSDIAVEWESNGQPENNYKTTPPVLDSDGSFFLYSKLTVDKSRWQQGNVFSCSVLHEALHSHYTQKSLSLSPGKGGSDSWQEEVIKLCGRELVRAQIAICGKSTASDAAGANADAGARQLYSALANKCCHVGCTKRSLAQFC	2 nM
SEQ ID NO: 92 (Fc fusion) DKTHTCPPCPAPEAAGGPSVFLFPPKPKDTLMISRTPEVTCVVVDVSHEDPEVKFNWYVDGVEVHNAKTKPREEQYNSTYRVVSVLTVLHQDWLNGKEYKCKVSNKALAAPIEKTISKAKGQPREPQVYTLPPSRDELTKNQVSLTCLVKGFYPSDIAVEWESNGQPENNYKTTPPVLDSDGSFFLYSKLTVDKSRWQQGNVFSCSVLHEALHSHYTQKSLSLSPGEGGSDSWQEEVIKLCGRELVRAQIAICGKSTASDAAGANADAGARQLYSALANKCCHVGCTKRSLAQFC	4.3 nM
SEQ ID NO: 96 (Fc fusion) DKTHTCPPCPAPEAAGGPSVFLFPPKPKDTLMISRTPEVTCVVVDVSHEDPEVKFNWYVDGVEVHNAKTKPREEQYNSTYRVVSVLTVLHQDWLNGKEYKCKVSNKALAAPIEKTISKAKGQPREPQVYTLPPSRDELTKNQVSLTCLVKGFYPSDIAVEWESNGQPENNYKTTPPVLDSDGSFFLYSKLTVDKSRWQQGNVFSCSVLHEALHSHYTQKSLSLSPGEGGSDSWQEEVIKLCGRELVRAQIAICGKSTASDAAGADAQAGARQLYSALANKCCHVGCTKRSLAQFC	9.9 nM
